Data as given in patent publication US20220026415A1 (NATIONAL CANCER CENTER, published 2022).

Experiments:
Assay in all cases: immunoprecipitation with anti-RARRES1 antibody from RARRES1-transfected HEK293 cells with or without nocodazole, immunoblot
[1] = molecular target: Cyclin A (endogenous, HEK293 cells) (UniProt P20248 1-432, limits assumed)
Method: (§1) The cells were lysed in a lysis buffer (20 mM Tris, pH 7.4, 5 mM EDTA, 10 mM Na₄ P₂O₇, 100 mM NaF, 1% NP-40, 1 mM PMSF, 0.2% protease inhibitor cocktail and phosphatase inhibitor). The protein concentrations of the cell lysates were measured using a Pierce BCA Protein Assay kit (Pierce, Rockford, USA). Subsequently, protein lysates were resuspended in a loading buffer, boiled for 5 minutes, and then subjected to SDS-PAGE and immunoblotting with the indicated antibodies. For immunoprecipitation, a TAP buffer (25 mM Tris, pH 7.4, 140 mM NaCl, 0.5% NP-40, 10 mM NaF, 1 mM dithiothreitol (DTT), 1 mM phenylmethylsulphonyl fluoride, 1 mM EDTA, 1 mM Na₃VO₄, 1 mM β-glycerophosphate, 10% glycerol and 0.2% protease inhibitor cocktail and phosphatase inhibitor) was added to the cell lysates, and then the cell lysates were incubated along with a RARRES1 antibody (R & D System, MN, USA) or GST beads at 4° C. Protein expression was detected by chemiluminescence using the SuperSignal West Pico Chemiluminescent Substrate (Pierce).
(§2) In addition, it was examined whether RARRES1 interacted with other CDK-Cyclin complexes, including interphase CDKs (CDK2, CDK4, and CDK6) and their binding partner Cyclins, and immunoprecipitation according to Example 1-8 was performed on 293 cells under the same conditions as those in FIG. 7C.

[2] = molecular target: CDK4 (endogenous, HEK293 cells) (UniProt P11802 2-303)
Method: as §1, §2

[3] = molecular target: T1, Cyclin D (endogenous, HEK293 cells) (UniProt P24385 1-295, limits assumed)
T1 construct: Printed only as 'Cyclin D'; Cyclin D1 is inferred from the antibody list; also called Cyclin D1
Method: as §1, §2

[4] = molecular target: CDK2 (endogenous, HEK293 cells) (UniProt P24941 1-298)
Method: as §1, §2

Chain of Cyclin A (endogenous, HEK293 cells) (P20248 whole entry): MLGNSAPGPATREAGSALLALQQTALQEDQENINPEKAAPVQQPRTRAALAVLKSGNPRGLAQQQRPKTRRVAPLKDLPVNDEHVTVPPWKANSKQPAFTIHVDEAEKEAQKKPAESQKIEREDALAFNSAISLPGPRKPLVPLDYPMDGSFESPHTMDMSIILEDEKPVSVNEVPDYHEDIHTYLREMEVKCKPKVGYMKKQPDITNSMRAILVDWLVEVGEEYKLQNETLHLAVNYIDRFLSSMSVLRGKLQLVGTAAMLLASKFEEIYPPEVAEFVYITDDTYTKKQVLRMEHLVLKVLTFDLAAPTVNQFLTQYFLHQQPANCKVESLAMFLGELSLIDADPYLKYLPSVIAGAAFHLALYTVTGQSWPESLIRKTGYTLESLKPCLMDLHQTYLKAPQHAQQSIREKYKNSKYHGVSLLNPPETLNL
T1 sequence (P24385 whole entry): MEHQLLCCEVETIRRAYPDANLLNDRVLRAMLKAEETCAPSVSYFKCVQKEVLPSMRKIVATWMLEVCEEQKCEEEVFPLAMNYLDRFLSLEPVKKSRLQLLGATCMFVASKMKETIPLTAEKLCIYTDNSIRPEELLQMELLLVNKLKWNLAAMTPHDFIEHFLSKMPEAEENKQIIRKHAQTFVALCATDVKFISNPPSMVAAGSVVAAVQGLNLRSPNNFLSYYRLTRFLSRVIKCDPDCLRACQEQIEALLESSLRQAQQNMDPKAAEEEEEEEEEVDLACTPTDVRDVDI
Chain of CDK4 (endogenous, HEK293 cells) (P11802 2-303 limits assumed): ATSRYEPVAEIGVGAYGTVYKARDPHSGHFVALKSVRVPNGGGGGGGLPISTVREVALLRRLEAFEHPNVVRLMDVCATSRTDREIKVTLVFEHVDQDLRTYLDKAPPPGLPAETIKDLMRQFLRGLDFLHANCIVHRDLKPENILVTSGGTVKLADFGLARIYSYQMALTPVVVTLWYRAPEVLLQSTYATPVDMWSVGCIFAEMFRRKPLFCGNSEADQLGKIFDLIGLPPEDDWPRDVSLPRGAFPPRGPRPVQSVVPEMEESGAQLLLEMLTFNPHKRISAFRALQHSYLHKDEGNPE

binding result [1]: no binding
binding result [2]: no binding
binding result [3]: no binding
binding result [4]: no binding
B1: retinoic acid receptor responder 1 (RARRES1), isoform 1, wild type, overexpressed in HEK293 cells (other)
chain: MQPRRQRLPAPWSGPRGPRPTAPLLALLLLLAPVAAPAGSGDPDDPGQPQDAGVPRRLLQQAARAALHFFNFRSGSPSALRVLAEVQEGRAWINPKEGCKVHVVFSTERYNPESLLQEGEGRLGKCSARVFFKNQKPRPTINVTCTRLIEKKKRQQEDYLLYKQMKQLKNPLEIVSIPDNHGHIDPSLRLIWDLAFLGSSYVMWEMTTQVSHYYLAQLTSVRQWKTNDDTIDFDYTVLLHELSTQEIIPCRIHLVWYPGKPLKVKYHCQELQTPEEASGTEEGSAVVPTELSNF
notes: also called RARRES1-1
